Reference: publication PMC1636435 (Nucleic Acids Research, 2006)
One block for each molecule: values may come before it.

T1: RAD51AP1-C25 (C-terminal 25 residues of human RAD51AP1) (human, UniProt Q96B01-2 311-335)
T1 chain: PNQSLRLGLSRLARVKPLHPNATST

B1: human RAD51 (Gal4 two-hybrid fusion) (natural protein)
chain: MAMQMQLEANADTSVEEESFGPQPISRLEQCGINANDVKKLEEAGFHTVEAVAYAPKKELINIKGISEAKADKILAEAAKLVPMGFTTATEFHQRRSEIIQITTGSKELDKLLQGGIETGSITEMFGEFRTGKTQICHTLAVTCQLPIDRGGGEGKAMYIDTEGTFRPERLLAVAERYGLSGSDVLDNVAYARAFNTDHQTQLLYQASAMMVESRYALLIVDSATALYRTDYSGRGELSARQMHLARFLRMLLRLADEFGVAVVITNQVVAQVDGAAMFAADPKKPIGGNIIAHASTTRLYLRKGRGETRICKIYDSPCLPEAEAMFAINADGVGDAKD
B2: human RAD51AP1 (Gal4 two-hybrid fusion, all of RAD51AP1) (natural protein)
chain: MVRPVRHKKPVNYSQFDHSDSDDDFVSATVPLNKKSRTAPKELKQDKPKPNLNNLRKEEIPVQEKTPKKRMALDDKLYQRDLEVALALSVKELPTVTTNVQNSQDKSIEKHGSSKIETMNKSPHISNCSVASDYLDLDKITVEDDVGGVQGKRKAASKAAAQQRKILLEGSDGDSANDTEPDFAPGEDSEDDSDFCESEDNDEDFSMRKSKVKEIKKKEVKVKSPVEKKEKKSKSKCNALVTSVDSAPAAVKSESQSLPKKVSLSSDTTRKPLEIRSPSAESKKPKWVPPAASGGSRSSSSPLVVVSVKSPNQSLRLGLSRLARVKPLHPNATST
B3: RAD51AP1-C89 (C-terminal 89 amino acids of human RAD51AP1) (domain or fragment)
chain: APAAVKSESQSLPKKVSLSSDTTRKPLEIRSPSAESKKPKWVPPAASGGSRSSSSPLVVVSVKSPNQSLRLGLSRLARVKPLHPNATST

Tests used:
Assay in all cases: two-hybrid
[1] = target: human RAD51AP1 (Gal4 two-hybrid fusion, all of RAD51AP1) (human) (UniProt Q96B01)
[2] = target: human RAD51 (Gal4 two-hybrid fusion) (human) (UniProt Q06609)
[3] = target: human DMC1 (Gal4 two-hybrid fusion) (human) (UniProt Q14565)
Sequence of human DMC1 (Gal4 two-hybrid fusion) (human) (Q14565 whole entry, the tested form may be a part): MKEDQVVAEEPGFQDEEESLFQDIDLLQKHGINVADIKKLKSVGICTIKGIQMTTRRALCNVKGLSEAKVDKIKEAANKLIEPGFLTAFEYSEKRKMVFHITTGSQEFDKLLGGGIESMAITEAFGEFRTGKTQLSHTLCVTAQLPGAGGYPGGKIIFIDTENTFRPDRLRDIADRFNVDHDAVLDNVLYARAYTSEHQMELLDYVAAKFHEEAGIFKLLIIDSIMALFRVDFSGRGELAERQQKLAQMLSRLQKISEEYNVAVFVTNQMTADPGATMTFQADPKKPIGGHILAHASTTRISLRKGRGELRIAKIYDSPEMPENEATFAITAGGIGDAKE

[4] = target: Saccharomyces cerevisiae RAD51 (Gal4 two-hybrid fusion) (Saccharomyces cerevisiae) (UniProt P25454)
Sequence of Saccharomyces cerevisiae RAD51 (Gal4 two-hybrid fusion) (Saccharomyces cerevisiae) (P25454 whole entry, the tested form may be a part): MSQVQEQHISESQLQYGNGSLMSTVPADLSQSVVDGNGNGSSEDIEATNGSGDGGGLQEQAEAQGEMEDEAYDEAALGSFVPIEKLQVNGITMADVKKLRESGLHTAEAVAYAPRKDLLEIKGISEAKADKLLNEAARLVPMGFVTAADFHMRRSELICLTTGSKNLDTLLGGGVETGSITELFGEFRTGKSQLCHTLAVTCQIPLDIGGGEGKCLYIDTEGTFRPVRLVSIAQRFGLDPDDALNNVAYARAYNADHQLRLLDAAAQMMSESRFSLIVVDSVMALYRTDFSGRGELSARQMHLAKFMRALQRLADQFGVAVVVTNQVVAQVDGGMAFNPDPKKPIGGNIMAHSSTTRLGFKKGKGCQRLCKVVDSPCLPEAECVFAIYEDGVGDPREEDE

[5] = target: Two larger fragments, each containing RAD54 79-118
[6] = target: RAD51AP2-C33 (C-terminal 33 amino acids of human RAD51AP2) (human) (UniProt Q09MP3)
Sequence of RAD51AP2-C33 (C-terminal 33 amino acids of human RAD51AP2) (human) (Q09MP3 whole entry): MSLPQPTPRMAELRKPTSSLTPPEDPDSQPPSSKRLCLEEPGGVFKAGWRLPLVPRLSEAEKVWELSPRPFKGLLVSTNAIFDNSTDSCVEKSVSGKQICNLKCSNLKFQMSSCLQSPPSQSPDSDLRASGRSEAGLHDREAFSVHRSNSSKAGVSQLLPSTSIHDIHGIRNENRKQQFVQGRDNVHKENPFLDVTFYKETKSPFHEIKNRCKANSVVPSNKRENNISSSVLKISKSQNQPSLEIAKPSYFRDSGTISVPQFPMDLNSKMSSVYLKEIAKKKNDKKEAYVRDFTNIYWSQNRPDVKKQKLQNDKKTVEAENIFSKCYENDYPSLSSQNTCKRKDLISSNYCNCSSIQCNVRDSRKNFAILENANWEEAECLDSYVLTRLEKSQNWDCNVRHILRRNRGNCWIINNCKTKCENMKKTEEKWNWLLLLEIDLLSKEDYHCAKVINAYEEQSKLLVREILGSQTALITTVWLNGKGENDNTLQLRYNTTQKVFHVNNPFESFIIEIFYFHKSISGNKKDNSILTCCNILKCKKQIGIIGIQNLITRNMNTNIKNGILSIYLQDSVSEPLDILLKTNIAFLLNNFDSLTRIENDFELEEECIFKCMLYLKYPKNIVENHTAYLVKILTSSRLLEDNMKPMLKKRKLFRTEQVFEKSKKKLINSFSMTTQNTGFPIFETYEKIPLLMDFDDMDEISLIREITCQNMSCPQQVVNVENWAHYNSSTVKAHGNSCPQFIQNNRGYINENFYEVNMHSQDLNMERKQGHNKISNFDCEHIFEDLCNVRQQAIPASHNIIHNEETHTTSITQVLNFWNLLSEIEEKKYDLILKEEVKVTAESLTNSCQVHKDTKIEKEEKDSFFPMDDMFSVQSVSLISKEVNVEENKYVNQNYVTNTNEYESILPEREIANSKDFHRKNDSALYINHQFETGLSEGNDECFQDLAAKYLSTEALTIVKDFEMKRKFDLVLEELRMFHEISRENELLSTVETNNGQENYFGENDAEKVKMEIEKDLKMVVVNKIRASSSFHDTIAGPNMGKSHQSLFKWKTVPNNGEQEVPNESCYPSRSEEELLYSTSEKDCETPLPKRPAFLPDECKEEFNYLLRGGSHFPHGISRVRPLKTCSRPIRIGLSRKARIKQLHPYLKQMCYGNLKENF

[7] = target: RAD51AP2-C92 (last 92 amino acids of human RAD51AP2) (human) (UniProt Q09MP3)
Sequence of RAD51AP2-C92 (last 92 amino acids of human RAD51AP2) (human) (Q09MP3 1068-1159): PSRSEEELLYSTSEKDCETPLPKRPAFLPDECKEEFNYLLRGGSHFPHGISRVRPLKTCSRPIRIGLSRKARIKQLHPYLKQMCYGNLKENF

[8] = target: B2
[9] = target: T1, RAD51AP1-C25 (C-terminal 25 residues of …)
[10] = target: B3
[11] = target: B1

units of β-galactosidase (units of β-galactosidase) [1]: < 0.3 | units of β-galactosidase (units of β-galactosidase) [2]: 301 | units of β-galactosidase (units of β-galactosidase) [3]: < 0.3 | units of β-galactosidase (units of β-galactosidase) [4]: < 0.3
Molecule: RAD51AP2-C321 (C-terminal 321 amino acids of human RAD51AP2) (from UniProt Q09MP3 839-1159) (domain or fragment)

percent of the interaction of RAD54-N142 with RAD51 [5]: > 70% | units of β-galactosidase (units of β-galactosidase) [6]: 395 | units of β-galactosidase (units of β-galactosidase) [7]: 521
Molecule: human RAD51 (Gal4 two-hybrid fusion) (from UniProt Q06609 1-339) (natural protein)

units of β-galactosidase (units of β-galactosidase) [2]: 143
Molecule: RAD51AP2-C92 (last 92 amino acids of human RAD51AP2) (from UniProt Q09MP3 1068-1159) (domain or fragment)

Molecule: B1
units of β-galactosidase [8]: 590 units of β-galactosidase | units of β-galactosidase [9]: 473 units of β-galactosidase | units of β-galactosidase [10]: 420 units of β-galactosidase

Molecule: B2
units of β-galactosidase [11]: 111 units of β-galactosidase

Molecule: B3
units of β-galactosidase [11]: 24.6 units of β-galactosidase
